Tests used:
[1] = biological target: T1, human CD33-His (extracellular domain Asp 18-His 259) (human, UniProt P20138 18-259); assay: competitive ELISA vs coated SGN-33 2ug/mL; soluble 25ug/ml
T1 construct: range 18-259; bought protein; also called hCD33-his; human CD33 protein; not shown: His tag
Procedure: (§1) VHH antibodies and control antibodies with known epitopes were subjected to epitope classification with competitive ELISA. ELISA plates were coated with 2 μg/mL antibodies according to the method in Example 5.1; the human CD33-his protein was subjected to a gradient dilution from 30 μg/mL, and EC80 values (Tables 26-27) were calculated. ELISA plates were coated with 2 μg/mL antibodies; after 25 µg/mL of antibodies to be tested were added, a human CD33-his protein having an EC80 concentration corresponding to each of the antibodies to be tested was then added for incubation for 2 h. The plates were washed 5 times with PBS, then HRP-labeled anti-His antibodies (purchased from GenScript, Cat. No. A00612) were added for incubation for 1 h, and the plates were washed 5 times. A TMB substrate was added at 50 μL/well and incubated at room temperature for 10 min, then a stop solution (1.0 M HCl) was added at 50 μL/well. OD_{450 nm} values were read using an ELISA plate reader (Insight, purchased from PerkinElmer), and the competition rate between the antibodies was calculated according to the OD_{450 nm} values using a formula. The results are shown in FIGS. 12A-12B, the higher the value of the competition rate, the closer the epitopes to which two antibodies bind.

[2] = biological target: T1, human CD33-His (extracellular domain …); assay: competitive ELISA vs coated S006-NB146-17 2ug/mL; soluble 25ug/ml
Procedure: as §1

monkey CD33-His protein = biological target: T2, monkey CD33-His protein (monkey); assay: ELISA on coated monkey CD33-his
T2 construct: also called monkey CD33 protein

[3] = biological target: T1, human CD33-His (extracellular domain …); assay: competitive ELISA vs coated S006-NB146-3 2ug/mL; soluble 25ug/ml
Procedure: as §1

[4] = biological target: T1, human CD33-His (extracellular domain …); assay: competitive ELISA vs coated C33B904 2ug/mL; soluble 25ug/ml
Procedure: as §1

human CD33-his protein [5] = biological target: T3, human CD33-his protein (human, UniProt P20138 18-259); assay: competition ELISA, coated human CD33-his, vs Biotin-C33B904 at EC80; antibody 250.00 nM
T3 construct: range 18-259; bought protein; also called hCD33-his; recombinant human CD33-his; not shown: His tag
T3 sequence (P20138 18-259 limits assumed): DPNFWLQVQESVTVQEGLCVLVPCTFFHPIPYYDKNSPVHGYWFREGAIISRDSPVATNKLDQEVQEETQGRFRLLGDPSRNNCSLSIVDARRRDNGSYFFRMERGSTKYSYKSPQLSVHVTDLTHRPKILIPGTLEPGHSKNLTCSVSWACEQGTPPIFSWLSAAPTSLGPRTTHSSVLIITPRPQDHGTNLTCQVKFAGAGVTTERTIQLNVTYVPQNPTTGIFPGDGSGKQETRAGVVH
Procedure: The plate was sealed with a plastic film and incubated at 4° C. overnight, washed twice with PBS the next day, and a blocking solution [PBS+2% (w/w) BSA] was added for blocking at room temperature for 2 h. The blocking solution was discarded, and VHH-Fc antibody or negative control antibody serially diluted from 100 nM was added at 50 μL/well. After incubation at 37° C. for 2 h, the plate was washed 3 times with PBS. A secondary antibody labeled with HRP (horseradish peroxidase) (purchased from Sigma, Cat. No. A0170) was added. After incubation for 1 h at 37° C., the plate was washed 5 times with PBS. A TMB substrate was added at 50 μL/well. After incubation at room temperature for 10 min, a stop solution (1.0 N HCl) was added at 50 μL/well. The OD450 nm values were read on an ELISA plate reader (Multimode Plate Reader, EnSight, purchased from Perkin Elmer). The assay results for the binding of the VHH-Fc to hCD33-his by ELISA are shown in FIGS. 7A and 7B and Tables 11 and 12. […] The IgG control was hIgG1, and the data in the table are OD450 nm values.
ELISA plates were coated with 2 μg/mL human CD33-his protein according to the method in Example 5.1; the Biotin-C331B904 antibody was subjected to a gradient dilution from 15 μg/mL, and EC80 values (0.18 μg/mL) were calculated. […] OD_{450 nm} values were read using an ELISA plate reader (Insight, purchased from PerkinElmer). […]

human CD33-his protein [6] = biological target: T3, human CD33-his protein; assay: competition ELISA, coated human CD33-his, vs Biotin-C33B904 at EC80; antibody 31.25 nM
Procedure: (§2) ELISA plates were coated with 2 μg/mL human CD33-his protein according to the method in Example 5.1; the Biotin-C331B904 antibody was subjected to a gradient dilution from 15 μg/mL, and EC80 values (0.18 μg/mL) were calculated. ELISA plates were coated with 2 μg/mL human CD33-his protein; starting from 40 μg/mL, the VHH antibodies to be tested were diluted in a 1:2 dilution ratio to obtain seven concentrations and added to the ELISA plates, and then Biotin-C331904 antibodies with the EC80 concentrations were added for incubation for 2 h. The plates were washed 5 times with PBS and then […] (purchased from Sigma, Cat. No. S2438) were added for incubation for 1 h, and the plates were washed 5 times. A TMB substrate was added at 50 μL/well and incubated at room temperature for 10 min, then a stop solution (1.0 M HCl) was added at 50 μL/well. OD_{450 nm} values were read using an ELISA plate reader (Insight, purchased from PerkinElmer). Then, analysis was performed by software (GraphPad Prism8), and data were fitted for curve plotting. The results are shown in FIGS. 13A-13B and Tables 28 and 29.

human CD33-his protein [7] = biological target: T3, human CD33-his protein; assay: competition ELISA, coated human CD33-his, vs Biotin-C33B904 at EC80; antibody 0.98 nM
Procedure: as §2

human CD33-his protein [8] = biological target: T3, human CD33-his protein; assay: competition ELISA, coated human CD33-his, vs Biotin-C33B904 at EC80; antibody 0 nM (no competitor)
Procedure: as §2

T1 sequence (P20138 18-259 limits assumed): as above

Binder | inhibition rate [1] [%] | inhibition rate [2] [%] | EC50 (read off the curve) (monkey CD33-His protein) [nM] | inhibition rate [3] [%] | inhibition rate [4] [%] | OD450 (Biotin-C33B904 signal) (human CD33-his protein [5]) | OD450 (Biotin-C33B904 signal) (human CD33-his protein [6]) | OD450 (Biotin-C33B904 signal) (human CD33-his protein [7]) | OD450 (Biotin-C33B904 signal) (human CD33-his protein [8])
C33B904 hIgG1 (antibody, V domains shown, intact human IgG1; variable regions from US20190382481A1; also called C33B3904; C331B904) VH: EVQLVESGGGLVQPGRSLRLSCAASGFTFDDYAMHWVRQAPGKGLEWVSGIGWSGGSIVYADSVKGRFTISRDNAKNSLYLQMNSLRAEDTALYYCAKDSPYGDFFDYWGQGTLVTVSS VL: DIVMTQSPDSLAVSLGERATINCKSSQTVFYSSNNKNYLAWYQQKPGQPPKLLISWASTRKSGVPDRFSGSGSGTDFTLTVSSLQAEDVAVYYCQHYYSTPYTFGQGTKLEIKR | 17 | 1 | ~0.2 | -9 | 88 |  |  |  | 
C33B904 (antibody, human IgG1, kappa, V domains shown, control antibody, intact human IgG1 form; variable regions from US20190382481A1; also called C33B904 hIgG1; C331B904) VH: EVQLVESGGGLVQPGRSLRLSCAASGFTFDDYAMHWVRQAPGKGLEWVSGIGWSGGSIVYADSVKGRFTISRDNAKNSLYLQMNSLRAEDTALYYCAKDSPYGDFFDYWGQGTLVTVSS VL: DIVMTQSPDSLAVSLGERATINCKSSQTVFYSSNNKNYLAWYQQKPGQPPKLLISWASTRKSGVPDRFSGSGSGTDFTLTVSSLQAEDVAVYYCQHYYSTPYTFGQGTKLEIKR |  |  |  |  |  | 0.1 | 0.66 | 2.22 | 2.33

Reference: US20240124575A1 (SIMCERE ZAIMING PHARMACEUTICAL, published 2024)
